Measured values reported in paper PMC10397247.

T1: P5A-bH
T1 chain: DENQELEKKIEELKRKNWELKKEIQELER

T2: P6A-bH
T2 chain: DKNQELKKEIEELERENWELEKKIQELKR

T3: P9A-bH
T3 chain: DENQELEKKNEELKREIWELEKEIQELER

T4: P7A-bH
T4 chain: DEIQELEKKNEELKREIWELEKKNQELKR

T5: P8A-bH
T5 chain: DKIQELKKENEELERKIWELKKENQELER

T6: 4H4038-bN
T6 chain: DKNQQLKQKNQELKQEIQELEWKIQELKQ

T7: P4A-bH
T7 chain: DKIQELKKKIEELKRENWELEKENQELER

T8: 4H3907-bN
T8 chain: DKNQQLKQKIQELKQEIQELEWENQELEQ

T9: 4H3961-bN
T9 chain: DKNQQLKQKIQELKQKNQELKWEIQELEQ

T10: 4H470-bN
T10 chain: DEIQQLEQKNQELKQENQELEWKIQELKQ


Legend:
Experiment in all cases: two-hybrid library CCNG1;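 note: natural log of median RNA to DNA barcode read ratio; higher means stronger binding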
[1] = target: T1, P5A-bH
[2] = target: T2, P6A-bH
[3] = target: T3, P9A-bH
[4] = target: T4, P7A-bH
[5] = target: T5, P8A-bH
[6] = target: T6, 4H4038-bN
[7] = target: T7, P4A-bH
[8] = target: T8, 4H3907-bN
[9] = target: T9, 4H3961-bN
[10] = target: T10, 4H470-bN

Binder | interaction score [1] | interaction score [2] | interaction score [3] | interaction score [4] | interaction score [5] | interaction score [6] | interaction score [7] | interaction score [8] | interaction score [9] | interaction score [10]
DENQELEKKIEELKRKNWELKKEIQELER [P5A-bH] | -1.13 | 1.49 | -0.708 | -0.756 | 1.32 | – | – | – | – | –
DKIQELKKKIEELKRENWELEKENQELER [P4A-bH] | -0.285 | -2.06 | -0.144 | -0.412 | 0.0606 | – | -1.38 | – | – | –

Next, values leading:

interaction score [1] | interaction score [2] | interaction score [3] | interaction score [4] | interaction score [5] | interaction score [6] | interaction score [7] | interaction score [8] | interaction score [9] | interaction score [10] | Binder
– | – | – | – | – | -0.153 | – | – | – | – | DKNQQLKQKNQELKQEIQELEWKIQELKQ [4H4038-bN]
– | – | – | – | – | -2.02 | – | -1.04 | -1.64 | -1.7 | DKNQQLKQKIQELKQEIQELEWENQELEQ [4H3907-bN]
